From US20260167731A1 (DOMAIN THERAPEUTICS, published 2026)
Values joined by “and” are separate entries in the source; they are usually repeats but may differ in a detail not shown here. Equal values may be shown once.

Tests used:
human CCR8 [1] = target: T1, human CCR8 (human, UniProt P51685 1-355); assay: cell-based or functional assay
human CCR8 [2] = target: T1, human CCR8; assay: cell-based or functional assay; remark: listed apart in the source
human CCR8 [3] = target: T1, human CCR8; assay: cell-based or functional assay; remark: listed apart in the source
human CCR8 [4] = target: T1, human CCR8; assay: cell-based or functional assay; remark: listed apart in the source
human CCR8 [5] = target: T1, human CCR8; assay: cell-based or functional assay; remark: listed apart in the source
human CCR8 [6] = target: T1, human CCR8; assay: flow cytometry, HUT78 cells (endogenous CCR8)
[7] = target: pm5, modified CCR8 related peptide (human, sulfated tyrosines at Y15 and Y17); assay: ELISA on coated CCR8 peptide (500 ng/mL), OD [cont.]
Chain of pm5, modified CCR8 related peptide (human, sulfated tyrosines at Y15 and Y17) (peptide, as listed by the source): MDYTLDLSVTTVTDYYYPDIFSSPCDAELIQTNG
Outline: (§1)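 In this direct ELISA, CCR8-related peptides coated at 500 ng/mL are probed with anti-CCR8 mAbs (1 μg/mL, also 1/10 dilution; 90 min, room temperature). Read-out is TMB optical density.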

[8] = target: pm6, modified CCR8 related peptide (human, sulfated tyrosines at Y16 and Y17); assay: as above
Chain of pm6, modified CCR8 related peptide (human, sulfated tyrosines at Y16 and Y17) (peptide, as listed by the source): as above
Outline: as §1

[9] = target: pm8, modified CCR8 related peptide (human, sulfated tyrosines at Y15, Y16 and Y17); assay: as above
Chain of pm8, modified CCR8 related peptide (human, sulfated tyrosines at Y15, Y16 and Y17) (peptide, as listed by the source): as above
Outline: as §1

[10] = target: T2, pwt1, unmodified CCR8 related peptide (human, none (non-sulfated Y15, Y16, Y17)); assay: as above
T2 construct: First 34 amino acids of human CCR8, synthetic; also called unmodified peptide
T2 sequence (peptide, as listed by the source): as above
Outline: as §1

[11] = target: pm1, modified CCR8 related peptide (human, sulfated tyrosine at Y15); assay: as above
Chain of pm1, modified CCR8 related peptide (human, sulfated tyrosine at Y15) (peptide, as listed by the source): as above
Outline: as §1

[12] = target: pm2, modified CCR8 related peptide (human, sulfated tyrosine at Y16); assay: as above
Chain of pm2, modified CCR8 related peptide (human, sulfated tyrosine at Y16) (peptide, as listed by the source): as above
Outline: as §1

[13] = target: pm3, modified CCR8 related peptide (human, sulfated tyrosine at Y17); assay: as above
Chain of pm3, modified CCR8 related peptide (human, sulfated tyrosine at Y17) (peptide, as listed by the source): as above
Outline: as §1

[14] = target: pm4, modified CCR8 related peptide (human, sulfated tyrosines at Y15 and Y16); assay: as above
Chain of pm4, modified CCR8 related peptide (human, sulfated tyrosines at Y15 and Y16) (peptide, as listed by the source): as above
Outline: as §1

hCCR8 SNAP-tag = target: T3, hCCR8 SNAP-tag (human, UniProt P51685 1-355, SNAP-tag labelled with Lumi4-Terbium); assay: HTRF Tag-lite, inhibition of hCCL1-AF647 binding to SNAP-tag hCCR8 on HEK-293
T3 construct: also called human CCR8 engineered with a SNAP-tag at the N-terminus; not shown: SNAP-tag at the N-terminus
Description: The inhibition of CCL1 binding to hCCR8 was evaluated with the Tag-Lite® technology from Cisbio (Revvity). Human CCR8 is engineered with a SNAP-tag at the N-terminus of the GPCR. hCCR8 SNAP-tag is transiently transfected on HEK-293 cell line using FuGene® (Promega, Madison, WI, USA). 48 hours after transfection, cells are labeled with the substrate Lumi4-Terbium® (Cisbio, Codolet, France) which covalently reacts with the SNAP-tag, for 1 h at 37° C. […] The Kd is previously obtained in a saturation binding assay on the same cells. […] The plate is next incubated at 21° C. for 2 h. Detection of HTRF signal is performed on the multiplate reader EnVision (PerkinElmer, Waltham, MA, USA). The HTRF (665/620) ratio is calculated by EnVision software, the data exported are considered as the total binding. The specific binding is calculated then by subtracting the non-specific signal from the total binding. The Ki and IC₅₀are calculated using the “One site—Fit Ki” and “One site—FitlogIC50” from GraphPad Prism 9 (Graphpad Software, San Diego, CA, USA), respectively.

CD20 (on B cells) = target: T4, CD20 (on B cells) (human, UniProt P11836); assay: flow cytometry on PBMC of healthy donors, B cell gate (CD3-CD19+), % of binding, mean of two donors
T4 construct: native on the surface of B cells (CD3-CD19+) in PBMC of healthy donors; the sheet names the cell type only
T4 sequence (single chain, looked up): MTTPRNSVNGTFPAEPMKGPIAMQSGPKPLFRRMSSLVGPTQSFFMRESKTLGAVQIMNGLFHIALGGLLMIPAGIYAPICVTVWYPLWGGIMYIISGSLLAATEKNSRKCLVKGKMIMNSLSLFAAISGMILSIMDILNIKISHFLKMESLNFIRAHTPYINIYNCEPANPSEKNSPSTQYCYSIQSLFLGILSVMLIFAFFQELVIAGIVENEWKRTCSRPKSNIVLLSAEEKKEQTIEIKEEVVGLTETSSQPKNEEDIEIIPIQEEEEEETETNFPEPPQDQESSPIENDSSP

B1: humanized anti-CCR8 mAb 2-13 (antibody, human IgG1, kappa)
heavy: not shown
light: DIVMTQAAPSLSVTPGESASISCTSSKSLLHSNGNTYLYWFLQKPGQSPQLLIYRMSNLASGVPDRFSGSGSGTAFTLKISRVEAEDVGVYYCMQHREYPFTFGSGTKLEIKRTVAAPSVFIFPPSDEQLKSGTASVVCLLNNFYPREAKVQWKVDNALQSGNSQESVTEQDSKDSTYSLSSTLTLSKADYEKHKVYACEVTHQGLSSPVTKSFNRGEC
notes: Humanized, human IgG1 allotype G1m17 Fc with the terminal lysine deleted and the SDIE mutations
- IC50, CCL1 induced hCCR8 Gi2 signaling (BRET, HEK-293) (human CCR8 [1]): 0.035 µg/mL and 0.232 nM
- hCCL1 (100 nM) residual response in %, Protocol #2, mAb 0.08 µg/mL ([…] nM) (human CCR8 [2]): 74%
- hCCL1 (100 nM) residual response in %, Protocol #2, mAb 0.4 µg/mL (2.67 nM) (human CCR8 [2]): 54%
- hCCL1 (100 nM) residual response in %, Protocol #2, mAb 10 µg/mL (66.7 nM) (human CCR8 [2]): 40%
- hCCL1 (100 nM) residual response in %, Protocol #3, mAb 0.05 µg/mL (0.33 nM) (human CCR8 [2]): 89%
- hCCL1 (100 nM) residual response in %, Protocol #3, mAb 0.5 µg/mL (3.33 nM) (human CCR8 [2]): 63%
- hCCL1 (100 nM) residual response in %, Protocol #3, mAb 5 µg/mL (33.3 nM) (human CCR8 [2]): 51%
- IC50, CCL1 induced hCCR8 Gi2 signaling (BRET) at pH 6.5 (human CCR8 [3]): 0.025 µg/ml and 0.165 nM
- IC50, CCL1 induced hCCR8 Gi2 signaling (BRET) at pH 7.4 (human CCR8 [3]): 0.035 µg/ml and 0.232 nM
- ADCC EC50, HUT78 targets, NK cells Donor 1 (human CCR8 [4]): 6.43 pM
- ADCC EC50, HUT78 targets, NK cells Donor 2 (human CCR8 [4]): 2.16 pM
- ADCP % Max of phagocytosis, HUT78 targets, monocyte-derived macrophages Donor 9 (human CCR8 [5]): 9.65%
- % of labelled cells (human CCR8 [6]): 32%
- binding result [7]: binds
- binding result [8]: binds
- binding result [9]: binds
- binding result [10]: binds
- binding result [11]: binds
- binding result [12]: binds
- binding result [13]: binds
- binding result [14]: binds
- IC50 (hCCR8 SNAP-tag): 0.09 µg/mL and 0.6 nM
- Ki (hCCR8 SNAP-tag): 0.05 µg/mL and 0.3 nM

B2: Rituximab (antibody, V domains shown)
VH: QVQLQQPGAELVKPGASVKMSCKASGYTFTSYNMHWVKQTPGRGLEWIGAIYPGNGDTSYNQKFKGKATLTADKSSSTAYMQLSSLTSEDSAVYYCARSTYYGGDWYFNVWGAGTTVTVSA
VL: QIVLSQSPAILSASPGEKVTMTCRASSSVSYIHWFQQKPGSSPKPWIYATSNLASGVPVRFSGSGSGTSYSLTISRVEAEDAATYYCQQWTSNPPTFGGGTKLEIK
- EC50 (read off the curve) (CD20 (on B cells)): ~0.1 µg/mL
